In paper PMC6123696, “Multitasking of Hsp70 chaperone in the biogenesis of bacterial functional amyloids” (Communications Biology, 2018):

Assays:
[1] = target: T1, N-terminal His-tagged DnaK (His-DnaK) (E. coli, UniProt P0A6Y8 1-638); assay: peptide or protein array; CelluSpot array of cellulose-bound peptides on glass slides (8-residue peptides overlapping by seven); 50 nM His-DnaK in DB buffer (25 mM Tris-HCl pH 7.5, 150 mM NaCl, 10 mM KCl, 0.05% Tween 20, 5% sucrose) overnight at 4 °C; detected with HRP-conjugated anti-His antibody; conditions: both partners purified
T1 construct: also called DnaKWT; bacterial Hsp70; source: E. coli BL21 (DE3), from pDnaKWT (ASKA clone), purified (TALON, Mono Q, Superdex G-200); not shown: His tag, N-terminal, kept

[2] = target: T1, N-terminal His-tagged DnaK (His-DnaK); assay: SPR; BIAcore T200; CsgA peptides immobilised on a CM7 chip by EDC/NHS coupling; DnaK 50–1000 nM as analyte, single-cycle kinetics; 25 °C; HBS-DM buffer (10 mM HEPES pH 7.4, 150 mM NaCl, 5 mM MgCl2, 1% dimethylsulfoxide); 30 μL min^−1; fit with a 1:1 binding mode; conditions: both partners purified

T1 sequence (P0A6Y8 whole entry): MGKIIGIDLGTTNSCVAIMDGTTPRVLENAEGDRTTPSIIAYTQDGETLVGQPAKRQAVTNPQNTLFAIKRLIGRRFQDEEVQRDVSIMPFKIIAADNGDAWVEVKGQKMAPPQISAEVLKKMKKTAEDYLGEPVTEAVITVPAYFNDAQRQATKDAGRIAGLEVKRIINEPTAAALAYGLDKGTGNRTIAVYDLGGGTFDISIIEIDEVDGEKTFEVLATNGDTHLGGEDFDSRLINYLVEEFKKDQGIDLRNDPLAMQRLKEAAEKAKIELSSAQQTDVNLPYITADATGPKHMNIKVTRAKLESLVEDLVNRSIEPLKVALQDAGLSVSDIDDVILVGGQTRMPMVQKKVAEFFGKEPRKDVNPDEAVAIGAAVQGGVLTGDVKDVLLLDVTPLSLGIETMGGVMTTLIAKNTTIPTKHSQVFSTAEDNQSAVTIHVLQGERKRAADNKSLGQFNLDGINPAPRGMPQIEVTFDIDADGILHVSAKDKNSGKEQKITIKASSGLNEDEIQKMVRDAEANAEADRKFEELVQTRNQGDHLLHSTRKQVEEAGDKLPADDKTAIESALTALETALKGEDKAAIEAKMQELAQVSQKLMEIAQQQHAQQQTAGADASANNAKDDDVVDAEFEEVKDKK

B1: N-terminal 8-amino acid peptide of CsgB (NH2-KNKLLFMM-COOH) (peptide)
peptide: H-KNKLLFMM-OH
notes: source: synthetic peptide, CelluSpot peptide array (Intavis Bioanalytical Instruments)
Question: Does B1 bind [1]?
Answer: Result: binds

B2: CsgA_(133–151) (R5, the most amyloidogenic of the five repeats) (peptide)
peptide: SSVNVTQVGFGNNATAHQY
notes: source: synthetic peptide (Eurofins Genomics, HPLC >95%)
Question: B2 was tested. Which Kd [2] did it give?
Answer: The Kd was 20.7 nM.

Question: What about the koff [2] of the same binder?
Answer: The koff was 9.77e-05 s⁻¹.

Question: And the kon [2]?
Answer: Its kon is 4720 M⁻¹ s⁻¹.

B3: N-terminal 8-amino acid peptide of CsgA (NH2-KLLKVAAI-COOH) (peptide)
peptide: H-KLLKVAAI-OH
notes: as for B1
Question: Does B3 bind [1]?
Answer: Result: binds

B4: CsgA_(2–20) (signal peptide of CsgA without the N-terminal Met) (peptide)
peptide: KLLKVAAIAAIVFSGSALA
notes: also called CsgA signal peptide; source: synthetic peptide (Eurofins Genomics, HPLC >95%)
Question: B4 was tested. Which Kd [2] did it give?
Answer: Its Kd is 2.19 nM.

Question: What about the koff [2] of the same binder?
Answer: Its koff is 0.000256 s⁻¹.

Question: What about the kon [2] of the same binder?
Answer: The kon was 117000 M⁻¹ s⁻¹.
